Experimental data: US20060286112A1

Biological target: human VLA-1 (alpha 1/beta 1, CD49a/CD29) on IL-2 stimulated human PBMC / T cells (human) (UniProt P56199)
Test: cell-based or functional assay

Substance: Hu IgG4 (antibody)
- % adhesion of IL-2 activated T cells to collagen IV vs no antibody, 10 µg/ml, +PMA: 109%
- % adhesion of IL-2 activated T cells to collagen IV vs no antibody, 10 µg/ml, -PMA: 106%
- % adhesion of T cells to collagen IV vs no antibody, 5 nM mAb, 10 ng/ml PMA: 95.6%
- % adhesion of T cells to collagen IV vs no antibody, 5 nM mAb, no PMA: 9.5%
